The record followed here is US20240368304A1.

This experiment deals with epidermal growth factor receptor variant III (EGFRvIII) on U87EGFRvIII cells (UniProt P00533). As to the kind of experiment: cell-based or functional assay.

Regarding “2173 CD28zeta CAR (EGFRvIII specific CAR) on transduced primary human T cells”, the % cytolysis (killing) of U87 VIII GFP target cells, xCELLigence eSight impedance amounted to 100% and the Human IFN-gamma release from CAR T cells co-cultured with U87 VIII GFP target cells (sandwich ELISA, E:T 10:3) stood at 4750.
